Reference: patent publication US20170081417A1

Legend:
[1] = molecular target: human OX40 extracellular domain fused to the Fc portion of human IgG1 (hOX40:hFc) (human); experiment: ELISA, OX40L-FLAG binding to coated hOX40:hFc
[2] = molecular target: human OX40 (CD134), full length, expressed on cells (activated human T cells; EL4-OX40 and CHO-OX40 transfectants) (human) (UniProt P43489); experiment: flow cytometry, blocking of OX40L-FLAG binding to activated human T cells
[3] = molecular target: human OX40 extracellular domain fused to the Fc portion of human IgG1 (hOX40:hFc) (human); experiment: ELISA, blocking of OX40L-FLAG binding to coated hOX40:hFc
[4] = molecular target: human OX40 (CD134), full length, expressed on cells (activated human T cells; EL4-OX40 and CHO-OX40 transfectants) (human) (UniProt P43489); experiment: flow cytometry titration on activated human T cells
[5] = molecular target: recombinant human OX40:mFc fusion protein (Alexis Corporation) (human) (UniProt P43489); experiment: cross-blocking ELISA, hOX40:mFc pre-incubated with L106; competitor: coated 112Y131
Sequence of recombinant human OX40:mFc fusion protein (Alexis Corporation) (human) (P43489 29-214): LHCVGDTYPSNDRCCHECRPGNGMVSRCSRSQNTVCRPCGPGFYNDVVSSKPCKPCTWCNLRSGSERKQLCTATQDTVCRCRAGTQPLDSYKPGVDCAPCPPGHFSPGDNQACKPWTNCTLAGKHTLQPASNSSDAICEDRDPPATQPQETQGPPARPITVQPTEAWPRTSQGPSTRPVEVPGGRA

[6] = molecular target: human OX40 (CD134), full length, expressed on cells (activated human T cells; EL4-OX40 and CHO-OX40 transfectants) (human) (UniProt P43489); experiment: flow cytometry, OX40L-FLAG binding to activated human T cells
[7] = molecular target: recombinant human OX40:mFc fusion protein (Alexis Corporation) (human) (UniProt P43489); experiment: cross-blocking ELISA, hOX40:mFc pre-incubated with L106; competitor: coated 112V8

Sequence of human OX40 (CD134), full length, expressed on cells (activated human T cells; EL4-OX40 and CHO-OX40 transfectants) (human) (P43489 29-277 limits assumed): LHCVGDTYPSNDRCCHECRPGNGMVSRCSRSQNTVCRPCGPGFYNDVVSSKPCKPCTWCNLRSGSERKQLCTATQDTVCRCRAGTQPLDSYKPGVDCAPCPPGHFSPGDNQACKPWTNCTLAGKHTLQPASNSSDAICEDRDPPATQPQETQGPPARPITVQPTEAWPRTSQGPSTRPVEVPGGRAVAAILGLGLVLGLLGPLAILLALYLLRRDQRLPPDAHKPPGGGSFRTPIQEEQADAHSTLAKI
Sequence of human OX40 extracellular domain fused to the Fc portion of human IgG1 (hOX40:hFc) (human) (chain, as listed by the source limits assumed): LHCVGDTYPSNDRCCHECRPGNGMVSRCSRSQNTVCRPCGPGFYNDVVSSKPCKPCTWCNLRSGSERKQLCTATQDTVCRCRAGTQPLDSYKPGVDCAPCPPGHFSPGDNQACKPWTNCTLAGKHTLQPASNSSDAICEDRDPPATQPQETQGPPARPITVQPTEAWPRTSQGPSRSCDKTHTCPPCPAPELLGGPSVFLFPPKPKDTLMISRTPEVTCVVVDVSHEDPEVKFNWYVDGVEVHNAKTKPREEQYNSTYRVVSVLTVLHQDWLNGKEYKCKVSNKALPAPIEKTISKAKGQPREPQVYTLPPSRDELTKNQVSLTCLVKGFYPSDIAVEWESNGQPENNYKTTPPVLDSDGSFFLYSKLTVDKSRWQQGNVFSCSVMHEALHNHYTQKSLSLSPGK

percent inhibition of OX40L binding [1]: 95%
IC50 [2]: 60.9 µg/mL
IC50 [3]: 0.982 µg/mL
BMAX Geo Mean (geometric mean fluorescence) [4]: 52
Kd [4]: 1 nM
percent reduction of binding [5]: 10%
percent inhibition of OX40L binding [6]: 60%
percent reduction of binding [7]: 10%
Substance: mouse anti-human OX40 antibody L106 (Becton Dickinson, catalog number 340420)
